Measurements: IntAct's records for PubMed 31515488

B1: Cyclin-dependent kinase 4 inhibitor C (Homo sapiens), P42773 (parent)
chain: MAEPWGNELASAAARGDLEQLTSLLQNNVNVNAQNGFGRTALQVMKLGNPEIARRLLLRGANPDLKDRTGFAVIHDAARAGFLDTLQTLLEFQADVNIEDNEGNLPLHLAAKEGHLRVVEFLVKHTASNVGHRNHKGDTACDLARLYGRNEVVSLMQANGAGGATNLQ
partner: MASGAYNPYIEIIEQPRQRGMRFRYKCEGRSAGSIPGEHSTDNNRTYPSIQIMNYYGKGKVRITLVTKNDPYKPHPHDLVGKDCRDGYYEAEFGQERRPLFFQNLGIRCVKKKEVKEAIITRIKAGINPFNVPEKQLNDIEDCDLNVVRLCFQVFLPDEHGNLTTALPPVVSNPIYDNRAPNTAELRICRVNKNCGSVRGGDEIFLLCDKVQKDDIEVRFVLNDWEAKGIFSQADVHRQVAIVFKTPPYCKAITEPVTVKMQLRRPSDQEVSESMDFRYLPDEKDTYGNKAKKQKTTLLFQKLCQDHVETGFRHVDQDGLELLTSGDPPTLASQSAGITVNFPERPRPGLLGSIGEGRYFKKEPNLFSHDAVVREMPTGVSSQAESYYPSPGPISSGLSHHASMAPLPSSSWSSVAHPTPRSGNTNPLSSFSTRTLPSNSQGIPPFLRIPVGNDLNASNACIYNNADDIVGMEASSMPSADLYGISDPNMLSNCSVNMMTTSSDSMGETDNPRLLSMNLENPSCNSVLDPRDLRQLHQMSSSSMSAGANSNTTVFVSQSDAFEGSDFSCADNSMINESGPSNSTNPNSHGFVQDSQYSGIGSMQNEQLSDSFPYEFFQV
B2: Fructose-1,6-bisphosphatase 1 (Homo sapiens), P09467 (parent)
chain: MADQAPFDTDVNTLTRFVMEEGRKARGTGELTQLLNSLCTAVKAISSAVRKAGIAHLYGIAGSTNVTGDQVKKLDVLSNDLVMNMLKSSFATCVLVSEEDKHAIIVEPEKRGKYVVCFDPLDGSSNIDCLVSVGTIFGIYRKKSTDEPSEKDALQPGRNLVAAGYALYGSATMLVLAMDCGVNCFMLDPAIGEFILVDKDVKIKKKGKIYSLNEGYARDFDPAVTEYIQRKKFPPDNSAPYGARYVGSMVADVHRTLVYGGIFLYPANKKSPNGKLRLLYECNPMAYVMEKAGGMATTGKEAVLDVIPTDIHQRAPVILGSPDDVLEFLKVYEKHSAQ
B3: Fructose-1,6-bisphosphatase 1 (Homo sapiens), P09467 (parent)
chain: B2 chain
partner: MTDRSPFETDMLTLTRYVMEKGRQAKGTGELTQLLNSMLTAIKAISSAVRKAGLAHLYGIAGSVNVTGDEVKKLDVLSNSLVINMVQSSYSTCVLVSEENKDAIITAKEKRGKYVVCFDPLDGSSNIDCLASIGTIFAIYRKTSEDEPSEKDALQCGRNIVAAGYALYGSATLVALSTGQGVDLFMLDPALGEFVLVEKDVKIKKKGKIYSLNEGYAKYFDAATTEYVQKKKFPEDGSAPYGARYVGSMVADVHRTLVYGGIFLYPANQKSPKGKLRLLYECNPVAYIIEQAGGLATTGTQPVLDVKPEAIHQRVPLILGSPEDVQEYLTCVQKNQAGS
B4: KAT8 regulatory NSL complex subunit 1 (Homo sapiens), Q7Z3B3 (parent)
chain: MAAMAPALTDAAAEAHHIRFKLAPPSSTLSPGSAENNGNANILIAANGTKRKAIAAEDPSLDFRNNPTKEDLGKLQPLVASYLCSDVTSVPSKESLKLQGVFSKQTVLKSHPLLSQSYELRAELLGRQPVLEFSLENLRTMNTSGQTALPQAPVNGLAKKLTKSSTHSDHDNSTSLNGGKRALTSSALHGGEMGGSESGDLKGGMTNCTLPHRSLDVEHTTLYSNNSTANKSSVNSMEQPALQGSSRLSPGTDSSSNLGGVKLEGKKSPLSSILFSALDSDTRITALLRRQADIESRARRLQKRLQVVQAKQVERHIQHQLGGFLEKTLSKLPNLESLRPRSQLMLTRKAEAALRKAASETTTSEGLSNFLKSNSISEELERFTASGIANLRCSEQAFDSDVTDSSSGGESDIEEEELTRADPEQRHVPLRRRSEWKWAADRAAIVSRWNWLQAHVSDLEYRIRQQTDIYKQIRANKGLIVLGEVPPPEHTTDLFLPLSSEVKTDHGTDKLIESVSQPLENHGAPIIGHISESLSTKSCGALRPVNGVINTLQPVLADHIPGDSSDAEEQLHKKQRLNLVSSSSDGTCVAARTRPVLSCKKRRLVRPNSIVPLSKKVHRNSTIRPGCDVNPSCALCGSGSINTMPPEIHYEAPLLERLSQLDSCVHPVLAFPDDVPTSLHFQSMLKSQWQNKPFDKIKPPKKLSLKHRAPMPGSLPDSARKDRHKLVSSFLTTAKLSHHQTRPDRTHRQHLDDVGAVPMVERVTAPKAERLLNPPPPVHDPNHSKMRLRDHSSERSEVLKHHTDMSSSSYLAATHHPPHSPLVRQLSTSSDSPAPASSSSQVTASTSQQPVRRRRGESSFDINNIVIPMSVAATTRVEKLQYKEILTPSWREVDLQSLKGSPDEENEEIEDLSDAAFAALHAKCEEMERARWLWTTSVPPQRRGSRSYRSSDGRTTPQLGSANPSTPQPASPDVSSSHSLSEYSHGQSPRSPISPELHSAPLTPVARDTPRHLASEDTRCSTPELGLDEQSVQPWERRTFPLAHSPQAECEDQLDAQERAARCTRRTSGSKTGRETEAAPTSPPIVPLKSRHLVAAATAQRPTHR
partner: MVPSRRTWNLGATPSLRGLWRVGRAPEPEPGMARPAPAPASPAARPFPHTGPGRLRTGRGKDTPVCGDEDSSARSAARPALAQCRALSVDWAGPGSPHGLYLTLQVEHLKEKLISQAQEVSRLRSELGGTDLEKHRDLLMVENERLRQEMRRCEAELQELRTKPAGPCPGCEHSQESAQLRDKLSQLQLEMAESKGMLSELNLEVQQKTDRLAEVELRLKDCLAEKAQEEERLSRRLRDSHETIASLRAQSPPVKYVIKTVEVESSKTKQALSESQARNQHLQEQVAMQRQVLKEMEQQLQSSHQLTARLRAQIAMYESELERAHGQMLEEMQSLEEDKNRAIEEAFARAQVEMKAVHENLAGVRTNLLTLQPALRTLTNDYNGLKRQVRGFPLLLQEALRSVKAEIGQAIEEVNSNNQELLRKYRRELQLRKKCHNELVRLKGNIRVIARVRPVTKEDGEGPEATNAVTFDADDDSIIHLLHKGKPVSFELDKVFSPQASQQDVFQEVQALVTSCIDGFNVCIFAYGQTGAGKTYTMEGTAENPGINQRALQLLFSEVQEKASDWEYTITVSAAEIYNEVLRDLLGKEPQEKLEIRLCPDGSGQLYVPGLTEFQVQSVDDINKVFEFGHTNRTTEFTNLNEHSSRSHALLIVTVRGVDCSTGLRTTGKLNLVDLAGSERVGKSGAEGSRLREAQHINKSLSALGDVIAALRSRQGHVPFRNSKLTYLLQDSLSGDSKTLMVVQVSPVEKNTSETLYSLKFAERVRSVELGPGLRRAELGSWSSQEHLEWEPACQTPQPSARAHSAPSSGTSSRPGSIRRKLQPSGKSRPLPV
B5: Ensconsin (Homo sapiens), Q14244 (parent)
chain: MAELGAGGDGHRGGDGAVRSETAPDSYKVQDKKNASSRPASAISGQNNNHSGNKPDPPPVLRVDDRQRLARERREEREKQLAAREIVWLEREERARQHYEKHLEERKKRLEEQRQKEERRRAAVEEKRRQRLEEDKERHEAVVRRTMERSQKPKQKHNRWSWGGSLHGSPSIHSADPDRRSVSTMNLSKYVDPVISKRLSSSSATLLNSPDRARRLQLSPWESSVVNRLLTPTHSFLARSKSTAALSGEAASCSPIIMPYKAAHSRNSMDRPKLFVTPPEGSSRRRIIHGTASYKKERERENVLFLTSGTRRAVSPSNPKARQPARSRLWLPSKSLPHLPGTPRPTSSLPPGSVKAAPAQVRPPSPGNIRPVKREVKVEPEKKDPEKEPQKVANEPSLKGRAPLVKVEEATVEERTPAEPEVGPAAPAMAPAPASAPAPASAPAPAPVPTPAMVSAPSSTVNASASVKTSAGTTDPEEATRLLAEKRRLAREQREKEERERREQEELERQKREELAQRVAEERTTRREEESRRLEAEQAREKEEQLQRQAEERALREREEAERAQRQKEEEARVREEAERVRQEREKHFQREEQERLERKKRLEEIMKRTRRTEATDKKTSDQRNGDIAKGALTGGTEVSALPCTTNAPGNGKPVGSPHVVTSHQSKVTVESTPDLEKQPNENGVSVQNENFEEIINLPIGSKPSRLDVTNSESPEIPLNPILAFDDEGTLGPLPQVDGVQTQQTAEVI

Variants of: B1
Conditions: with rel_human REL

Row | Variant | effect of a mutation on the interaction
1 | MAEPWGNELASAAARGDLEQLTSLLQNNVNVNAQNGFGRTALQVMKLGNPEIARRLLLRGANPDLKDRAGFAVIHDAARAGFLDTLQTLLEFQADVNIEDNEGNLPLHLAAKEGHLRVVEFLVKHTASNVGHRNHKGDTACDLARLYGRNEVVSLMQANGAGGATNLQ [T69A] | with no effect
2 | MAEPWGNELASAAARGDLEQLTSLLQNNVNLNAQNGFGRTALQVMKLGNPEIARRLLLRGANPDLKDRTGFAVIHDAARAGFLDTLQTLLEFQADVNIEDNEGNLPLHLAAKEGHLRVVEFLVKHTASNVGHRNHKGDTACDLARLYGRNEVVSLMQANGAGGATNLQ [V31L] | disrupting interaction strength

Variants of: B2
Conditions: with fxr2_human FXR2, P51116

Row | Variant | effect of a mutation on the interaction
3 | MADQAPFDTDVNTLTRFVMEEGRKARGTGELTQLLNSLCTAVKAISSAVRKAGIAHLYGIAGSTNVTGDQVKKLDVLSNDLVMNMLKSSFATCVLVSEEDKHAIIVEPEKRGKYVVCFDPLDGSSNIDCLVSVGTIFGIYRKKSTDEPSEKDALQPGRNLVAAGYALYGSATMLVLAMDCGVNCFMLDPAIGEFILVDKDVKIKKKGKIYSLNEGYARDFDPAVTEYIQRKKFPPDNSAPYGARYVGSMVADVHRTLVYRGIFLYPANKKSPNGKLRLLYECNPMAYVMEKAGGMATTGKEAVLDVIPTDIHQRAPVILGSPDDVLEFLKVYEKHSAQ [G260R] | disrupting interaction strength

Variants of: B3
Conditions: with FBP2, O00757

Row | Variant | effect of a mutation on the interaction
4 | MADQAPFDTDVNTLTRFVMEEGRKARGTGELTQLLNSLCTAVKAISSAVRKAGIAHLYGIAGSTNVTGDQVKKLDVLSNDLVMNMLKSSFATCVLVSEEDKHAIIVEPEKRGKYVVCFDPLDGSSNIDCLVSVGTIFGIYRKKSTDEPSEKDALQPGRNLVAAGYALYGSATMLVLAMDCGVNCFMLDPAIGEFILVDKDVKIKKKGKIYSLNEGYARDFDPAVTEYIQRKKFPPDNSAPYGARYVGSMVADVHRTLVYRGIFLYPANKKSPNGKLRLLYECNPMAYVMEKAGGMATTGKEAVLDVIPTDIHQRAPVILGSPDDVLEFLKVYEKHSAQ [G260R] | disrupting interaction strength

Variants of: B4
Conditions: with kifc3_human KIFC3, Q9BVG8

Row | Variant | effect of a mutation on the interaction
5 | K104T | disrupting interaction strength

Variants of: B5
Conditions: with ccdb1_human CCNDBP1, O95273
ccdb1_human CCNDBP1, O95273, sequence (O95273 whole entry): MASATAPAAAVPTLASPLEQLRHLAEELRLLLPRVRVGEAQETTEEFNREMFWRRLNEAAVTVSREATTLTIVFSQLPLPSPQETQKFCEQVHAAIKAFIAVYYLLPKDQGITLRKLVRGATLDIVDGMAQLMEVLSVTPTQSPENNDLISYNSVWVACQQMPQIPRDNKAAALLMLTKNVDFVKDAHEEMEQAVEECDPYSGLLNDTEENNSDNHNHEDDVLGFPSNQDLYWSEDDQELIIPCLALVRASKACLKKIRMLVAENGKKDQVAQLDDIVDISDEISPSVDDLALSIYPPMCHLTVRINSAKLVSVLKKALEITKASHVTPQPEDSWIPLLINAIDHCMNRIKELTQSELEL

Row | Variant | effect of a mutation on the interaction
6 | P649L | with no effect
7 | M429T | with no effect
